Data taken from patent US20160272683A1 (Novo Nordisk, published 2016).
Numbered stars: 1 amine (or outer) side, 2 acyl side, 3 side chain; on linkers, the order of the positions; unused ones are H or OH. * marks the point of attachment. C20 diacid = O=C(O)CCCCCCCCCCCCCCCCCCC(=O)*; C18 diacid = O=C(O)CCCCCCCCCCCCCCCCC(=O)*; γGlu = O=C(O)[C@H](CCC(=O)[*:2])N[*:1]

B1: [N-terminal(C20 diacid-gGlu), des1, 12H, 25H, 30S, 31G]mimylin (peptide)
peptide: {C20 diacid-γGlu}-ASELSTAALGHLSAELHELATLPHTETGSGSP-NH2
SMILES: CC(C)C[C@H](NC(=O)[C@H](C)NC(=O)[C@H](C)NC(=O)[C@@H](NC(=O)[C@H](CO)NC(=O)[C@H](CC(C)C)NC(=O)[C@H](CCC(=O)O)NC(=O)[C@H](CO)NC(=O)[C@H](C)NC(=O)CC[C@H](NC(=O)CCCCCCCCCCCCCCCCCCC(=O)O)C(=O)O)[C@@H](C)O)C(=O)NCC(=O)N[C@@H](Cc1c[nH]cn1)C(=O)N[C@@H](CC(C)C)C(=O)N[C@@H](CO)C(=O)N[C@@H](C)C(=O)N[C@@H](CCC(=O)O)C(=O)N[C@@H](CC(C)C)C(=O)N[C@@H](Cc1c[nH]cn1)C(=O)N[C@@H](CCC(=O)O)C(=O)N[C@@H](CC(C)C)C(=O)N[C@@H](C)C(=O)N[C@H](C(=O)N[C@@H](CC(C)C)C(=O)N1CCC[C@H]1C(=O)N[C@@H](Cc1c[nH]cn1)C(=O)N[C@H](C(=O)N[C@@H](CCC(=O)O)C(=O)N[C@H](C(=O)NCC(=O)N[C@@H](CO)C(=O)NCC(=O)N[C@@H](CO)C(=O)N1CCC[C@H]1C(N)=O)[C@@H](C)O)[C@@H](C)O)[C@@H](C)O
B2: [N-terminal(C20 diacid-gGlu), des1, 21S, 23Y, 30S, 31G]mimylin (peptide)
peptide: {C20 diacid-γGlu}-ASELSTAALGRLSAELHELSTYPRTETGSGSP-NH2
SMILES: CC(C)C[C@H](NC(=O)[C@H](C)NC(=O)[C@H](C)NC(=O)[C@@H](NC(=O)[C@H](CO)NC(=O)[C@H](CC(C)C)NC(=O)[C@H](CCC(=O)O)NC(=O)[C@H](CO)NC(=O)[C@H](C)NC(=O)CC[C@H](NC(=O)CCCCCCCCCCCCCCCCCCC(=O)O)C(=O)O)[C@@H](C)O)C(=O)NCC(=O)N[C@@H](CCCNC(=N)N)C(=O)N[C@@H](CC(C)C)C(=O)N[C@@H](CO)C(=O)N[C@@H](C)C(=O)N[C@@H](CCC(=O)O)C(=O)N[C@@H](CC(C)C)C(=O)N[C@@H](Cc1c[nH]cn1)C(=O)N[C@@H](CCC(=O)O)C(=O)N[C@@H](CC(C)C)C(=O)N[C@@H](CO)C(=O)N[C@H](C(=O)N[C@@H](Cc1ccc(O)cc1)C(=O)N1CCC[C@H]1C(=O)N[C@@H](CCCNC(=N)N)C(=O)N[C@H](C(=O)N[C@@H](CCC(=O)O)C(=O)N[C@H](C(=O)NCC(=O)N[C@@H](CO)C(=O)NCC(=O)N[C@@H](CO)C(=O)N1CCC[C@H]1C(N)=O)[C@@H](C)O)[C@@H](C)O)[C@@H](C)O
B3: [N-terminal(C18 diacid-gGlu), des1, 6T, 9V, 30S, 31G]mimylin (peptide)
peptide: {C18 diacid-γGlu}-ASELTTAVLGRLSAELHELATLPRTETGSGSP-NH2
SMILES: CC(C)C[C@H](NC(=O)[C@H](CCC(=O)O)NC(=O)[C@H](Cc1c[nH]cn1)NC(=O)[C@H](CC(C)C)NC(=O)[C@H](CCC(=O)O)NC(=O)[C@H](C)NC(=O)[C@H](CO)NC(=O)[C@H](CC(C)C)NC(=O)[C@H](CCCNC(=N)N)NC(=O)CNC(=O)[C@H](CC(C)C)NC(=O)[C@@H](NC(=O)[C@H](C)NC(=O)[C@@H](NC(=O)[C@@H](NC(=O)[C@H](CC(C)C)NC(=O)[C@H](CCC(=O)O)NC(=O)[C@H](CO)NC(=O)[C@H](C)NC(=O)CC[C@H](NC(=O)CCCCCCCCCCCCCCCCC(=O)O)C(=O)O)[C@@H](C)O)[C@@H](C)O)C(C)C)C(=O)N[C@@H](C)C(=O)N[C@H](C(=O)N[C@@H](CC(C)C)C(=O)N1CCC[C@H]1C(=O)N[C@@H](CCCNC(=N)N)C(=O)N[C@H](C(=O)N[C@@H](CCC(=O)O)C(=O)N[C@H](C(=O)NCC(=O)N[C@@H](CO)C(=O)NCC(=O)N[C@@H](CO)C(=O)N1CCC[C@H]1C(N)=O)[C@@H](C)O)[C@@H](C)O)[C@@H](C)O
B4: [N-terminal(C20 diacid-gGlu), des1, 23Y, 30S, 31G, 32A]mimylin (peptide)
peptide: {C20 diacid-γGlu}-ASELSTAALGRLSAELHELATYPRTETGSGAP-NH2
SMILES: CC(C)C[C@H](NC(=O)[C@H](C)NC(=O)[C@H](C)NC(=O)[C@@H](NC(=O)[C@H](CO)NC(=O)[C@H](CC(C)C)NC(=O)[C@H](CCC(=O)O)NC(=O)[C@H](CO)NC(=O)[C@H](C)NC(=O)CC[C@H](NC(=O)CCCCCCCCCCCCCCCCCCC(=O)O)C(=O)O)[C@@H](C)O)C(=O)NCC(=O)N[C@@H](CCCNC(=N)N)C(=O)N[C@@H](CC(C)C)C(=O)N[C@@H](CO)C(=O)N[C@@H](C)C(=O)N[C@@H](CCC(=O)O)C(=O)N[C@@H](CC(C)C)C(=O)N[C@@H](Cc1c[nH]cn1)C(=O)N[C@@H](CCC(=O)O)C(=O)N[C@@H](CC(C)C)C(=O)N[C@@H](C)C(=O)N[C@H](C(=O)N[C@@H](Cc1ccc(O)cc1)C(=O)N1CCC[C@H]1C(=O)N[C@@H](CCCNC(=N)N)C(=O)N[C@H](C(=O)N[C@@H](CCC(=O)O)C(=O)N[C@H](C(=O)NCC(=O)N[C@@H](CO)C(=O)NCC(=O)N[C@@H](C)C(=O)N1CCC[C@H]1C(N)=O)[C@@H](C)O)[C@@H](C)O)[C@@H](C)O
B5: [N-terminal(C18 diacid-gGlu), des1, 9V, 30S, 31G]mimylin (peptide)
peptide: {C18 diacid-γGlu}-ASELSTAVLGRLSAELHELATLPRTETGSGSP-NH2
SMILES: CC(C)C[C@H](NC(=O)[C@H](CCC(=O)O)NC(=O)[C@H](Cc1c[nH]cn1)NC(=O)[C@H](CC(C)C)NC(=O)[C@H](CCC(=O)O)NC(=O)[C@H](C)NC(=O)[C@H](CO)NC(=O)[C@H](CC(C)C)NC(=O)[C@H](CCCNC(=N)N)NC(=O)CNC(=O)[C@H](CC(C)C)NC(=O)[C@@H](NC(=O)[C@H](C)NC(=O)[C@@H](NC(=O)[C@H](CO)NC(=O)[C@H](CC(C)C)NC(=O)[C@H](CCC(=O)O)NC(=O)[C@H](CO)NC(=O)[C@H](C)NC(=O)CC[C@H](NC(=O)CCCCCCCCCCCCCCCCC(=O)O)C(=O)O)[C@@H](C)O)C(C)C)C(=O)N[C@@H](C)C(=O)N[C@H](C(=O)N[C@@H](CC(C)C)C(=O)N1CCC[C@H]1C(=O)N[C@@H](CCCNC(=N)N)C(=O)N[C@H](C(=O)N[C@@H](CCC(=O)O)C(=O)N[C@H](C(=O)NCC(=O)N[C@@H](CO)C(=O)NCC(=O)N[C@@H](CO)C(=O)N1CCC[C@H]1C(N)=O)[C@@H](C)O)[C@@H](C)O)[C@@H](C)O
B6: [N-terminal(C20 diacid-gGlu), -1E, 1A, 23Y, 30S, 31G]mimylin (peptide)
peptide: {C20 diacid-γGlu}-EAASELSTAALGRLSAELHELATYPRTETGSGSP-NH2
SMILES: CC(C)C[C@H](NC(=O)[C@H](C)NC(=O)[C@H](C)NC(=O)[C@@H](NC(=O)[C@H](CO)NC(=O)[C@H](CC(C)C)NC(=O)[C@H](CCC(=O)O)NC(=O)[C@H](CO)NC(=O)[C@H](C)NC(=O)[C@H](C)NC(=O)[C@H](CCC(=O)O)NC(=O)CC[C@H](NC(=O)CCCCCCCCCCCCCCCCCCC(=O)O)C(=O)O)[C@@H](C)O)C(=O)NCC(=O)N[C@@H](CCCNC(=N)N)C(=O)N[C@@H](CC(C)C)C(=O)N[C@@H](CO)C(=O)N[C@@H](C)C(=O)N[C@@H](CCC(=O)O)C(=O)N[C@@H](CC(C)C)C(=O)N[C@@H](Cc1c[nH]cn1)C(=O)N[C@@H](CCC(=O)O)C(=O)N[C@@H](CC(C)C)C(=O)N[C@@H](C)C(=O)N[C@H](C(=O)N[C@@H](Cc1ccc(O)cc1)C(=O)N1CCC[C@H]1C(=O)N[C@@H](CCCNC(=N)N)C(=O)N[C@H](C(=O)N[C@@H](CCC(=O)O)C(=O)N[C@H](C(=O)NCC(=O)N[C@@H](CO)C(=O)NCC(=O)N[C@@H](CO)C(=O)N1CCC[C@H]1C(N)=O)[C@@H](C)O)[C@@H](C)O)[C@@H](C)O
B7: [N-terminal(C20 diacid-gGlu), des1, 23Y, 30S, 31G, 33Y]mimylin (peptide)
peptide: {C20 diacid-γGlu}-ASELSTAALGRLSAELHELATYPRTETGSGSY-NH2
SMILES: CC(C)C[C@H](NC(=O)[C@H](C)NC(=O)[C@H](C)NC(=O)[C@@H](NC(=O)[C@H](CO)NC(=O)[C@H](CC(C)C)NC(=O)[C@H](CCC(=O)O)NC(=O)[C@H](CO)NC(=O)[C@H](C)NC(=O)CC[C@H](NC(=O)CCCCCCCCCCCCCCCCCCC(=O)O)C(=O)O)[C@@H](C)O)C(=O)NCC(=O)N[C@@H](CCCNC(=N)N)C(=O)N[C@@H](CC(C)C)C(=O)N[C@@H](CO)C(=O)N[C@@H](C)C(=O)N[C@@H](CCC(=O)O)C(=O)N[C@@H](CC(C)C)C(=O)N[C@@H](Cc1c[nH]cn1)C(=O)N[C@@H](CCC(=O)O)C(=O)N[C@@H](CC(C)C)C(=O)N[C@@H](C)C(=O)N[C@H](C(=O)N[C@@H](Cc1ccc(O)cc1)C(=O)N1CCC[C@H]1C(=O)N[C@@H](CCCNC(=N)N)C(=O)N[C@H](C(=O)N[C@@H](CCC(=O)O)C(=O)N[C@H](C(=O)NCC(=O)N[C@@H](CO)C(=O)NCC(=O)N[C@@H](CO)C(=O)N[C@@H](Cc1ccc(O)cc1)C(N)=O)[C@@H](C)O)[C@@H](C)O)[C@@H](C)O

molecular target: T1, human amylin 3(a) receptor (human calcitonin receptor co-expressed with RAMP-3) on BHK570/CRE-luc cells (human, UniProt P30988 25-474; O60896 24-148); assay: cell-based or functional assay
T1 sequence (looked up) 1: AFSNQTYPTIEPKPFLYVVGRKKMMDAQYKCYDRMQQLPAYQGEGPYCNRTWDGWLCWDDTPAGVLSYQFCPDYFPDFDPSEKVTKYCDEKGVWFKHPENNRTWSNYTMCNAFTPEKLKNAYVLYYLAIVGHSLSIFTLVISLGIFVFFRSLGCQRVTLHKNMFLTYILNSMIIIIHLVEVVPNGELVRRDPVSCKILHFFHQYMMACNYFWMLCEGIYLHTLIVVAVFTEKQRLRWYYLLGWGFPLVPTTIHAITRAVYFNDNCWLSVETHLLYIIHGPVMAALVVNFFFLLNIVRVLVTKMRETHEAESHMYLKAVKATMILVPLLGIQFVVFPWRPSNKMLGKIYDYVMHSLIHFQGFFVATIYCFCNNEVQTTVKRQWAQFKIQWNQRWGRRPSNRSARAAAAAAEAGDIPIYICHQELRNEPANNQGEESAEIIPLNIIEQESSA
T1 sequence (looked up) 2: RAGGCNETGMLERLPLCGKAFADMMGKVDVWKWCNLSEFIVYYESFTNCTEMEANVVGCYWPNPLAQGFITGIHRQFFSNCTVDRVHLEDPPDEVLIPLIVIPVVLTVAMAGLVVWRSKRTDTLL

Going from {C18 diacid-γGlu}-ASEVSTAVLGRLSAELHELATLPRTETGSGSP-NH2 [[N-terminal(C18 diacid-gGlu), des1, 5V, 9V, 30S, 31G]mimylin] to B1, the “hAmylin-R funct. EC50 (pM), tested with HSA” value (shortened to “hAmylin-R funct. EC50 (pM)”) rises from 356 pM to 440 pM.

Going from B2 to B3, the “hAmylin-R funct. EC50 (pM)” value falls from 58 pM to 19 pM.

Going from B4 to B5, the “hAmylin-R funct. EC50 (pM)” value falls from 100 pM to 17 pM.

First: B6
Second: {C20 diacid-γGlu}-ASGLSTAALGRLSAELHELATYPRTETGSGSP-NH2 [[N-terminal(C20 diacid-gGlu), des1, 4G, 23Y, 30S, 31G]mimylin]
The “hAmylin-R funct. EC50 (pM)” value of the first is higher: 181 pM for the first, 71 pM for the second.

For B7, the “hAmylin-R funct. EC50 (pM)” value was 93 pM.

molecular target: T2, human calcitonin receptor on BHK570/CRE-luc cells (human, UniProt P30988 25-474); assay: cell-based or functional assay
T2 sequence (looked up): T1 sequence (looked up) 1

First: {C18 diacid-γGlu}-ASEVSTAVLGRLSAELHELATLPRTETGSGSP-NH2 [[N-terminal(C18 diacid-gGlu), des1, 5V, 9V, 30S, 31G]mimylin]
Second: B1
The “hCTR funct. EC50 (pM), tested with HSA” value of the first is lower: 87 pM for the first, 123 pM for the second.

Compared with B2, B3 is lower in “hCTR funct. EC50 (pM), tested with HSA” value: 30 pM for the first, 9 pM for the second.

Compared with B4, B5 is lower in “hCTR funct. EC50 (pM), tested with HSA” value: 37 pM for the first, 11 pM for the second.

First: B6
Second: {C20 diacid-γGlu}-ASGLSTAALGRLSAELHELATYPRTETGSGSP-NH2 [[N-terminal(C20 diacid-gGlu), des1, 4G, 23Y, 30S, 31G]mimylin]
The “hCTR funct. EC50 (pM), tested with HSA” value of the first is higher: 113 pM for the first, 45 pM for the second.

For B7, the “hCTR funct. EC50 (pM), tested with HSA” value was 71 pM.
